Source: US20230250154A1 (CYTONICS, published 2023)
Numbering of substitutions follows the chain as printed. Numbers in names are those of the source. One block for each binder: values may come before it.

What was measured:
Assay in all cases: cell-based or functional assay
MMP2 = molecular target: T1, MMP2 (human, UniProt P08253 110-660, limits assumed)
T1 sequence (looked up): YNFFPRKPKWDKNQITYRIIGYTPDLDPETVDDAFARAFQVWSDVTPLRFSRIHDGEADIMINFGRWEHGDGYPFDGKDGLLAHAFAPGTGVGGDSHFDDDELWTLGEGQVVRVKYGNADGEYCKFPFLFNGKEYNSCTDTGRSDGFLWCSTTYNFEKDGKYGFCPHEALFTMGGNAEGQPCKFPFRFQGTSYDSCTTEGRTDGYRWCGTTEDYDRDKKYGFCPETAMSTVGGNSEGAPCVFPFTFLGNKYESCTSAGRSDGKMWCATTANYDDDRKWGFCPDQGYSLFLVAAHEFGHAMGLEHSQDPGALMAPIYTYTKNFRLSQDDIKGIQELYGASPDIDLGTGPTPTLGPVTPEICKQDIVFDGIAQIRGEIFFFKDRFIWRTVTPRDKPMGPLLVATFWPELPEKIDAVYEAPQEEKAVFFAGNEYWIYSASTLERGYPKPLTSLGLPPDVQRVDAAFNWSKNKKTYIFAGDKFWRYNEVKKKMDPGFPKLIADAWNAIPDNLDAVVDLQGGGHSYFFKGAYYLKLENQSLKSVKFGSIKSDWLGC

MMP8 = MMP8 (human, UniProt P22894 101-467, limits assumed)
MMP9 = MMP9 (human, UniProt P14780 107-707, limits assumed)
ADAMTS4 = molecular target: T2, ADAMTS4 (human, UniProt O75173 213-685, limits assumed)
T2 sequence (looked up): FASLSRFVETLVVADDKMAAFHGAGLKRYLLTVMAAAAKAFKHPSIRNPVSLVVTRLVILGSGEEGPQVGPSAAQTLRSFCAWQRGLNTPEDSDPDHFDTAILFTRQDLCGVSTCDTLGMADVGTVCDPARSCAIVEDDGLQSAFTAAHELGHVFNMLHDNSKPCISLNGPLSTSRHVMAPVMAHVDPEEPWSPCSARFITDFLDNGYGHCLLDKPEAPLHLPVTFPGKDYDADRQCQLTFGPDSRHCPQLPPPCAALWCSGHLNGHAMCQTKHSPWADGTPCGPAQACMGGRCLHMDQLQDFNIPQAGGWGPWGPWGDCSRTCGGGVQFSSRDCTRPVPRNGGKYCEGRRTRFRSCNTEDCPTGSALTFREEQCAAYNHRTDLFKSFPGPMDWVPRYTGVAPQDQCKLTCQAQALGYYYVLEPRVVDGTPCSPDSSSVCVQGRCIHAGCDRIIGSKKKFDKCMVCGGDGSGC

MMP1 = molecular target: T3, MMP1 (human, UniProt P03956 100-469, limits assumed)
T3 sequence (looked up): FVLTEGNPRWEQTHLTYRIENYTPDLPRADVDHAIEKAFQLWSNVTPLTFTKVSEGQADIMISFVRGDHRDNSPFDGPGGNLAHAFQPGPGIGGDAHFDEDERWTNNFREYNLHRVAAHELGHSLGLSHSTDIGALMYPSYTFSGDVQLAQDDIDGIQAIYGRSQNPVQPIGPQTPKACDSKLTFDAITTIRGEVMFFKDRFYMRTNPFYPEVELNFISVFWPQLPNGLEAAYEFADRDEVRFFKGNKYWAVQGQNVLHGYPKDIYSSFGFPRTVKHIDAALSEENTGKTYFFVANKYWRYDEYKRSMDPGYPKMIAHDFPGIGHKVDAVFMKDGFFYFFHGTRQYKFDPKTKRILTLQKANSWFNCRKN

ADAMTS5 = molecular target: T4, ADAMTS5 (human, UniProt Q9UNA0 262-622, limits assumed)
T4 sequence (looked up): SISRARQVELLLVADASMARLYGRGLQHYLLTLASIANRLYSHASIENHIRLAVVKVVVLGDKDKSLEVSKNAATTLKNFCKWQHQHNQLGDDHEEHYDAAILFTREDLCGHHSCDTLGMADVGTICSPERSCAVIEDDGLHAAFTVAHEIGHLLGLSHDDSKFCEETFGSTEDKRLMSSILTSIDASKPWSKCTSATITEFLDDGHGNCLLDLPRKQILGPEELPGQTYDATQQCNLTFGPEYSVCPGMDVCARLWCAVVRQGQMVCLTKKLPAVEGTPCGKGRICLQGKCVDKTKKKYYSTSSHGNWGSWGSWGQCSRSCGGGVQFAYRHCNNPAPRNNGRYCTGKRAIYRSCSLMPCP

MMP3 = MMP3 (human, UniProt P08254 100-477, limits assumed)
MMP13 = MMP13 (human, UniProt P45452 104-471, limits assumed)

MMP3, sequence (P08254 100-477 limits assumed): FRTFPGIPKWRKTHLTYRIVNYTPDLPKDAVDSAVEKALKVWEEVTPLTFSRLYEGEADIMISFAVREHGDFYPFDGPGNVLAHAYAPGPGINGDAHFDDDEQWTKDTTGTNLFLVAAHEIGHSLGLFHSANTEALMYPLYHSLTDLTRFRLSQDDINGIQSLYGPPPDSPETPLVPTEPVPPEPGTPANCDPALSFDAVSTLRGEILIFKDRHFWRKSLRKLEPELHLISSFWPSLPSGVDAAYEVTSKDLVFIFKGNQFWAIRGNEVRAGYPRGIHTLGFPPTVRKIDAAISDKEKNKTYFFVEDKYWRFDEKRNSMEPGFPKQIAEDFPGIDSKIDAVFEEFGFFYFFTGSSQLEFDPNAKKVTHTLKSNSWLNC
MMP8, sequence (P22894 101-467 limits assumed): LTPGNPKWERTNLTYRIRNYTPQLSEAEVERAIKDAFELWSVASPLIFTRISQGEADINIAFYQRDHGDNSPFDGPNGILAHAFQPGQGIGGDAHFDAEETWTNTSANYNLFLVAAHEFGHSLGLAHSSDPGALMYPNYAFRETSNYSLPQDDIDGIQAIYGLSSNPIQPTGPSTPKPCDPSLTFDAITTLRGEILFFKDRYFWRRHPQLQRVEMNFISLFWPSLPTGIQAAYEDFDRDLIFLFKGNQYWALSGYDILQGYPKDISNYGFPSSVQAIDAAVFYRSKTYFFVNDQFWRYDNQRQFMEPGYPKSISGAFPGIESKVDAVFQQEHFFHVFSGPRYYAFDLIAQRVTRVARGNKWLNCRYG
MMP9, sequence (P14780 107-707 limits assumed): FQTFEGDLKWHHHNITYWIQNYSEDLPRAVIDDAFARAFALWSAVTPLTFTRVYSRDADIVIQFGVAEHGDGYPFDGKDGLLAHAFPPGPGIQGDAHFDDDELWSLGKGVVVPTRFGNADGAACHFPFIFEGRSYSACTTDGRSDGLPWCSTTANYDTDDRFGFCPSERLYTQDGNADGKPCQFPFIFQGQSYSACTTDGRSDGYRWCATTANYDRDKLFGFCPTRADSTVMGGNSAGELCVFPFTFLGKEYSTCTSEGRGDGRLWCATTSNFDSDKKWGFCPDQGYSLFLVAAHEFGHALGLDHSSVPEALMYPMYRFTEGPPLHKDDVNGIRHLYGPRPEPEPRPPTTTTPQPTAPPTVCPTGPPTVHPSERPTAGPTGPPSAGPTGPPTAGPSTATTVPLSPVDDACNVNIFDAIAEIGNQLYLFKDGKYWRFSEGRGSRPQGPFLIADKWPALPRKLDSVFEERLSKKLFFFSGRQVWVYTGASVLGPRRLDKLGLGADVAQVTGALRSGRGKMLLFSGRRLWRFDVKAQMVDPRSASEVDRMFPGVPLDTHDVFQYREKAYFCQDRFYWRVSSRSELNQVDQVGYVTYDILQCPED

Protease Inhibition (% of WT) (MMP2): 100 % of WT | Protease Inhibition (% of WT) (MMP8): 40 % of WT | Protease Inhibition (% of WT) (MMP9): 70 % of WT | Protease Inhibition (% of WT) (ADAMTS4): 160 % of WT | Protease Inhibition (% of WT) (MMP1): 150 % of WT | Protease Inhibition (% of WT) (ADAMTS5): 170 % of WT | Protease Inhibition (% of WT) (MMP3): 40 % of WT | Protease Inhibition (% of WT) (MMP13): 150 % of WT
B1: Variant A2M, bait region SEQ ID NO 87 (other)
chain: SVSGKPQYMVLVPSLLHTETTEKGCVLLSYLNETVTVSASLESVRGNRSLFTDLEAENDVLHCVAFAVPKSSSNEEVMFLTVQVKGPTQEFKKRTTVMVKNEDSLVFVQTDKSIYKPGQTVKFRVVSMDENFHPLNELIPLVYIQDPKGNRIAQWQSFQLEGGLKQFSFPLSSEPFQGSYKVVVQKKSGGRTEHPFTVEEFVLPKFEVQVTVPKIITILEEEMNVSVCGLYTYGKPVPGHVTVSICRKYSDASDCHGEDSQAFCEKFSGQLNSHGCFYQQVKTKVFQLKRKEYEMKLHTEAQIQEEGTVVELTGRQSSEITRTITKLSFVKVDSHFRQGIPFFGQVRLVDGKGVPIPNKVIFIRGNEANYYSNATTDEHGLVQFSINTTNVMGTSLTVRVNYKDRSPCYGYQWVSEEHEEAHHTAYLVFSPSKSFVHLEPMSHELPCGHTQTVQAHYILNGGTLLGLKKLSFYYLIMAKGGIVRTGTHGLLVKQEDMKGHFSISIPVKSDIAPVARLLIYAVLPTGDVIGDSAKYDVENCLANKVDLSFSPSQSLPASHAHLRVTAAPQSVCALRAVDQSVLLMKPDAELSASSVYNLLPEKDLTGFPGPLNDQDDEDCINRHNVYINGITYTPVSSTNEKDMYSFLEDMGLKAFTNSKIRKPKMCPQLEQYEMHGPEGLRVGKEEEGLGSSELEGRGSTAQEAGEGKLRKYFPETWIWDLVVVNSAGVAEVGVTVPDTITEWKAGAFCLSEDAGLGISSTASLRAFQPFFVELTMPYSVIRGEAFTLKATVLNYLPKCIRVSVQLEASPAFLAVPVEKEQAPHCICANGRQTVSWAVTPKSLGNVNFTVSAEALESQELCGTEVPSVPEHGRKDTVIKPLLVEPEGLEKETTFNSLLCPSGGEVSEELSLKLPPNVVEESARASVSVLGDILGSAMQNTQNLLQMPYGCGEQNMVLFAPNIYVLDYLNETQQLTPEIKSKAIGYLNTGYQRQLNYKHYDGSYSTFGERYGRNQGNTWLTAFVLKTFAQARAYIFIDEAHITQALIWLSQRQKDNGCFRSSGSLLNNAIKGGVEDEVTLSAYITIALLEIPLTVTHPVVRNALFCLESAWKTAQEGDHGSHVYTKALLAYAFALAGNQDKRKEVLKSLNEEAVKKDNSVHWERPQKPKAPVGHFYEPQAPSAEVEMTSYVLLAYLTAQPAPTSEDLTSATNIVKWITKQQNAQGGFSSTQDTVVALHALSKYGAATFTRTGKAAQVTIQSSGTFSSKFQVDNNNRLLLQQVSLPELPGEYSMKVTGEGCVYLQTSLKYNILPEKEEFPFALGVQTLPQTCDEPKAHTSFQISLSVSYTGSRSASNMAIVDVKMVSGFIPLKPTVKMLERSNHVSRTEVSSNHVLIYLDKVSNQTLSLFFTVLQDVPVRDLKPAIVKVYDYYETDEFAIAEYNAPCSKDLGNADYKDDDDKGASHHHHHH

Protease Inhibition (% of WT) (MMP2): 110 % of WT | Protease Inhibition (% of WT) (MMP8): 160 % of WT | Protease Inhibition (% of WT) (MMP9): 50 % of WT | Protease Inhibition (% of WT) (ADAMTS4): 210 % of WT | Protease Inhibition (% of WT) (MMP1): 170 % of WT | Protease Inhibition (% of WT) (ADAMTS5): 250 % of WT | Protease Inhibition (% of WT) (MMP3): 80 % of WT | Protease Inhibition (% of WT) (MMP13): 90 % of WT
B2: Variant A2M, bait region SEQ ID NO 92 (other)
chain: SVSGKPQYMVLVPSLLHTETTEKGCVLLSYLNETVTVSASLESVRGNRSLFTDLEAENDVLHCVAFAVPKSSSNEEVMFLTVQVKGPTQEFKKRTTVMVKNEDSLVFVQTDKSIYKPGQTVKFRVVSMDENFHPLNELIPLVYIQDPKGNRIAQWQSFQLEGGLKQFSFPLSSEPFQGSYKVVVQKKSGGRTEHPFTVEEFVLPKFEVQVTVPKIITILEEEMNVSVCGLYTYGKPVPGHVTVSICRKYSDASDCHGEDSQAFCEKFSGQLNSHGCFYQQVKTKVFQLKRKEYEMKLHTEAQIQEEGTVVELTGRQSSEITRTITKLSFVKVDSHFRQGIPFFGQVRLVDGKGVPIPNKVIFIRGNEANYYSNATTDEHGLVQFSINTTNVMGTSLTVRVNYKDRSPCYGYQWVSEEHEEAHHTAYLVFSPSKSFVHLEPMSHELPCGHTQTVQAHYILNGGTLLGLKKLSFYYLIMAKGGIVRTGTHGLLVKQEDMKGHFSISIPVKSDIAPVARLLIYAVLPTGDVIGDSAKYDVENCLANKVDLSFSPSQSLPASHAHLRVTAAPQSVCALRAVDQSVLLMKPDAELSASSVYNLLPEKDLTGFPGPLNDQDDEDCINRHNVYINGITYTPVSSTNEKDMYSFLEDMGLKAFTNSKIRKPKMCPQLEQYEMHGPEGLRVGTAQEAGEGFYESDVMGRGHARLVHVEEPHTKLLRKYFPETWIWDLVVVNSAGVAEVGVTVPDTITEWKAGAFCLSEDAGLGISSTASLRAFQPFFVELTMPYSVIRGEAFTLKATVLNYLPKCIRVSVQLEASPAFLAVPVEKEQAPHCICANGRQTVSWAVTPKSLGNVNFTVSAEALESQELCGTEVPSVPEHGRKDTVIKPLLVEPEGLEKETTFNSLLCPSGGEVSEELSLKLPPNVVEESARASVSVLGDILGSAMQNTQNLLQMPYGCGEQNMVLFAPNIYVLDYLNETQQLTPEIKSKAIGYLNTGYQRQLNYKHYDGSYSTFGERYGRNQGNTWLTAFVLKTFAQARAYIFIDEAHITQALIWLSQRQKDNGCFRSSGSLLNNAIKGGVEDEVTLSAYITIALLEIPLTVTHPVVRNALFCLESAWKTAQEGDHGSHVYTKALLAYAFALAGNQDKRKEVLKSLNEEAVKKDNSVHWERPQKPKAPVGHFYEPQAPSAEVEMTSYVLLAYLTAQPAPTSEDLTSATNIVKWITKQQNAQGGFSSTQDTVVALHALSKYGAATFTRTGKAAQVTIQSSGTFSSKFQVDNNNRLLLQQVSLPELPGEYSMKVTGEGCVYLQTSLKYNILPEKEEFPFALGVQTLPQTCDEPKAHTSFQISLSVSYTGSRSASNMAIVDVKMVSGFIPLKPTVKMLERSNHVSRTEVSSNHVLIYLDKVSNQTLSLFFTVLQDVPVRDLKPAIVKVYDYYETDEFAIAEYNAPCSKDLGNADYKDDDDKGASHHHHHH

Protease Inhibition (% of WT) (MMP2): 110 % of WT | Protease Inhibition (% of WT) (MMP8): 20 % of WT | Protease Inhibition (% of WT) (MMP9): 50 % of WT | Protease Inhibition (% of WT) (ADAMTS4): 50 % of WT | Protease Inhibition (% of WT) (MMP1): 40 % of WT | Protease Inhibition (% of WT) (ADAMTS5): 400 % of WT | Protease Inhibition (% of WT) (MMP3): 50 % of WT | Protease Inhibition (% of WT) (MMP13): 210 % of WT
B3: Variant A2M, bait region SEQ ID NO 100 (other)
chain: B2 chain with T684G, A685E, Q686P, A688G, G689A, E690K
